# Results reported in paper PMC2848763, “The Puf family of RNA-binding proteins in plants: phylogeny, structural modeling, activity and subcellular localization”.
# T1: GST-AtPum2 PUM-HD (Arabidopsis thaliana, UniProt Q9ZW06 614-963)
# T1 sequence: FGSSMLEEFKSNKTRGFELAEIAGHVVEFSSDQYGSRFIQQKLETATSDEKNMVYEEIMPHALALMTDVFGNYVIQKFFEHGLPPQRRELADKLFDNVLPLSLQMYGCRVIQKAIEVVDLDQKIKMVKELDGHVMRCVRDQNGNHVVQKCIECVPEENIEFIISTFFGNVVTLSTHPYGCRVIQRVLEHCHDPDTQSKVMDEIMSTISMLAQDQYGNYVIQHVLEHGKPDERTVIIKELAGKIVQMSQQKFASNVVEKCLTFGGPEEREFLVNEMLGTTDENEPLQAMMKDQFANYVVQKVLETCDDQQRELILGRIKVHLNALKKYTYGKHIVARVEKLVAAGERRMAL
# B1: mutant NRE1 (G to U) (ssRNA)
# RNA: CCAGAAUUUUAUAUAUUCG
# B2: wildtype NRE1 (hunchback NRE1 BoxB) (ssRNA)
# RNA: CCAGAAUUGUAUAUAUUCG
# Tests used:
# GST-AtPum2 PUM-HD [1] = target: T1, GST-AtPum2 PUM-HD; assay: EMSA; estimated from free RNA; complex unstable, no accurate Kd; 10 mM HEPES pH 7.4, 1 mM EDTA, 50 mM KCl, 1 mM DTT, 0.01% BSA, 0.01% Tween 20; room temperature 1 h; 6% native gel run at 4 C; details: protein: recombinant; tags: N-terminal GST (pGEX-6P-1); label: 5' 32P; single strand, 19 nt
# GST-AtPum2 PUM-HD [2] = target: T1, GST-AtPum2 PUM-HD; assay: EMSA; apparent Kd; 200 pM labelled RNA; 10 mM HEPES pH 7.4, 1 mM EDTA, 50 mM KCl, 1 mM DTT, 0.01% BSA, 0.01% Tween 20; room temperature 1 h; 6% native gel run at 4 C; details: protein: recombinant; tags: N-terminal GST (pGEX-6P-1); label: 5' 32P; single strand, 19 nt
Binder,Kd (GST-AtPum2 PUM-HD [1]) [nM],Kd (GST-AtPum2 PUM-HD [2]) [nM]
B1,~354,
B2,,10.6
